The supplement of paper PMC7125110
± gives the standard error. For some assays here: Fewer inactive variants are shown than the library holds.

B1: glmS ribozyme (parent)
chain: AUAAAAGCGCCAGAACUACAGAAAUGUAGUUGACGAGGAGGAGGUUUAUCGAAUUUUCGGCGGAUGCCUCCAAA

Columns and labels:
Conditions in all cases: with glucosamine-6-phosphate
glucosamine-6-phosphate [1] = variants of: B1; assay: kcat; higher = faster cleavage; RNA array
How it was run: (§1)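 Barcoded ribozyme variants were transcribed in situ on sequenced MiSeq chips by E. coli RNA polymerase. At 37 °C, a hybridised Cy3 probe tracked them while glucosamine-6-phosphate (40 μM to 10 mM) in HEPES/KCl/Mg(OAc)2 buffer flowed in and tiles were imaged over ~14 h. Per-tile medians of signals normalised to baseline and to non-cleaving reference variants were fit to one- or two-exponential decays, giving kobs. kcat and KM came from weighted Michaelis–Menten fits across concentrations.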

glucosamine-6-phosphate [2] = variants of: B1; assay: KM; higher = weaker cofactor use; RNA array
How it was run: as §1

glucosamine-6-phosphate [3] = variants of: B1; assay: self-cleavage kobs at 640 uM GlcN6P; higher = faster cleavage; RNA array
How it was run: as §1

glucosamine-6-phosphate [4] = variants of: B1; assay: self-cleavage kobs at 2500 uM GlcN6P; higher = faster cleavage; RNA array
How it was run: as §1

glucosamine-6-phosphate [5] = variants of: B1; assay: self-cleavage kobs at 10000 uM GlcN6P; higher = faster cleavage; RNA array
How it was run: as §1

glucosamine-6-phosphate [6] = variants of: B1; assay: self-cleavage kobs at 160 uM GlcN6P; higher = faster cleavage; RNA array
How it was run: as §1

glucosamine-6-phosphate [7] = variants of: B1; assay: self-cleavage kobs at 40 uM GlcN6P; higher = faster cleavage; RNA array
How it was run: as §1

Row | Variant | kcat (glucosamine-6-phosphate [1]) [s⁻¹] | KM (glucosamine-6-phosphate [2]) [mM] | self-cleavage kobs at 640 uM GlcN6P (glucosamine-6-phosphate [3]) [s⁻¹] | self-cleavage kobs at 2500 uM GlcN6P (glucosamine-6-phosphate [4]) [s⁻¹] | self-cleavage kobs at 10000 uM GlcN6P (glucosamine-6-phosphate [5]) [s⁻¹] | self-cleavage kobs at 160 uM GlcN6P (glucosamine-6-phosphate [6]) [s⁻¹] | self-cleavage kobs at 40 uM GlcN6P (glucosamine-6-phosphate [7]) [s⁻¹]
1 | U30C U47A | 0.000176 ± 9.3e-06 | 1.4 ± 0.19 | 5.72e-05 ± 8.2e-06 | 0.000106 ± 1.2e-05 | 0.00016 ± 1.6e-05 |  | 
2 | U31C U45C | 0.0005 ± 0.0001 | 4.69 ± 1.6 | 5.17e-05 ± 1.1e-05 | 0.000213 ± 3.5e-05 | 0.000327 ± 4.5e-05 |  | 
3 | U31C G40U | 0.000615 ± 0.00011 | 2.87 ± 0.92 | 0.000122 ± 2.1e-05 | 0.000236 ± 4.1e-05 | 0.000515 ± 6.3e-05 | 4.05e-05 ± 1.4e-05 | 
4 | U31C G66A | 0.00283 ± 0.00065 | 2.03 ± 0.75 | 0.000724 ± 8.4e-05 | 0.00127 ± 0.00017 | 0.00266 ± 0.00027 | 0.000128 ± 4.7e-05 | 6.95e-05 ± 9.4e-06
5 | U31G U65C | 0.000173 ± 5.1e-05 |  | 4.57e-05 ± 1.5e-05 | 6.33e-05 ± 1.4e-05 | 0.000136 ± 2e-05 |  | 
6 | U31A G41U | 0.000384 ± 3.8e-05 | 0.43 ± 0.089 | 0.000289 ± 6.2e-05 | 0.00034 ± 8.7e-05 | 0.000344 ± 6e-05 | 0.000103 ± 2e-05 | 2.67e-05 ± 1.2e-05
7 | U30G A53C | 0.00231 ± 0.0004 | 2.69 ± 0.91 | 0.000512 ± 0.0001 | 0.00138 ± 0.00034 | 0.00177 ± 0.00022 | 0.000159 ± 6.4e-05 | 
8 | G32U U45G | 0.000699 ± 0.00027 |  |  | 6.97e-05 ± 1.1e-05 | 0.000203 ± 2.1e-05 |  | 
9 | U31G A52U G62U C67G | < 1e-05 |  |  | < 1e-05 | < 1e-05 |  | < 1e-05
10 | G32U U56A | 0.00196 ± 0.00014 | 7.73 ± 0.9 | 0.000156 ± 2.9e-05 | 0.000494 ± 7.9e-05 | 0.0011 ± 9.2e-05 | 3.3e-05 ± 1.3e-05 | 
11 | U31C U49G | 7.25e-05 ± 2.8e-06 | 1.61 ± 0.2 | 2.25e-05 ± 9.3e-06 | 4.27e-05 ± 7.7e-06 | 6.33e-05 ± 9.1e-06 |  | 
12 | U31A C58G G62C A64C C67A | 1.85e-05 ± 3.6e-06 |  |  |  |  |  | 
13 | G32U G63A | < 1e-05 |  | < 1e-05 | < 1e-05 | < 1e-05 |  | 
14 | G32U A64U | < 1e-05 |  | < 1e-05 |  |  | < 1e-05 | 
15 | G32A A64C | 1.13e-05 ± 9e-07 | 1.76 ± 0.49 |  |  |  |  | 
16 | U30G U45C | 0.000451 ± 9.8e-05 |  | 0.000201 ± 8.3e-05 | 0.00024 ± 7.8e-05 | 0.000435 ± 9.4e-05 |  | 

Row | Variant | kcat (glucosamine-6-phosphate [1]) [s⁻¹] | KM (glucosamine-6-phosphate [2]) [mM] | self-cleavage kobs at 640 uM GlcN6P (glucosamine-6-phosphate [3]) [s⁻¹] | self-cleavage kobs at 2500 uM GlcN6P (glucosamine-6-phosphate [4]) [s⁻¹] | self-cleavage kobs at 10000 uM GlcN6P (glucosamine-6-phosphate [5]) [s⁻¹] | self-cleavage kobs at 160 uM GlcN6P (glucosamine-6-phosphate [6]) [s⁻¹] | self-cleavage kobs at 40 uM GlcN6P (glucosamine-6-phosphate [7]) [s⁻¹]
17 | U30G C50A | < 1e-05 |  |  |  |  |  | < 1e-05
18 | G32C | 0.000139 ± 1.7e-06 | 3.46 ± 0.11 | 2.26e-05 ± 1.4e-06 | 5.77e-05 ± 1.3e-06 | 0.000103 ± 1.4e-06 |  | 
19 | G32U | 0.00158 ± 5.1e-05 | 5.15 ± 0.24 | 0.000173 ± 2.7e-06 | 0.000508 ± 1e-05 | 0.00104 ± 1.4e-05 | 4.88e-05 ± 1.7e-06 | 1.52e-05 ± 1.4e-06
20 | G32A | 0.00528 ± 0.00074 | 4.25 ± 0.75 | 0.00064 ± 1.1e-05 | 0.00219 ± 7.7e-05 | 0.00372 ± 7.6e-05 | 0.000185 ± 5.1e-06 | 5.63e-05 ± 1.2e-06
21 | G32U C67G | 0.000119 ± 1.3e-05 | 1.52 ± 0.57 | 4.87e-05 ± 1.6e-05 | 6.69e-05 ± 1.2e-05 | 0.000107 ± 1.2e-05 |  | 
22 | U31A U55A | 0.0251 ± 0.0036 | 3.81 ± 0.79 | 0.00452 ± 0.0014 | 0.00953 ± 0.0034 | 0.0182 ± 0.0035 | 0.000953 ± 0.00022 | 
23 | U30G U46A G66C | 0.000292 ± 0.00014 |  | 6.55e-05 ± 2.5e-05 | 0.00038 ± 8.8e-05 | 0.000218 ± 5.4e-05 |  | 
24 | U30G U54A | 0.0115 ± 0.0045 |  | 0.00201 ± 0.0004 | 0.00795 ± 0.0017 | 0.00853 ± 0.0011 | 0.000384 ± 7.9e-05 | 0.000247 ± 3.2e-05
25 | G32U C58A | 0.00151 ± 0.00022 | 5.03 ± 1 | 0.000164 ± 1.4e-05 | 0.000495 ± 4.5e-05 | 0.00102 ± 8.8e-05 | 6.77e-05 ± 1.3e-05 | 
26 | G32U C58U | 0.000916 ± 0.0003 |  | 0.000118 ± 1.5e-05 | 0.000245 ± 3e-05 | 0.000655 ± 6.4e-05 | 6.06e-05 ± 1.7e-05 | 
27 | G32A A42U C70A | < 1e-05 |  | < 1e-05 |  |  | < 1e-05 | < 1e-05
28 | U31A A52G C68A | 1.75e-05 ± 4.6e-06 |  |  |  |  |  | 
29 | U31G U45G | 0.00239 ± 0.00077 |  | 0.000405 ± 0.0001 | 0.00155 ± 0.00034 | 0.00164 ± 0.00042 |  | 
30 | G32A G66A | 0.00312 ± 0.0006 | 6.29 ± 1.7 | 0.000269 ± 6.9e-05 | 0.000911 ± 0.00018 | 0.0019 ± 0.00044 |  | 
31 | G32A G66U | 0.000161 ± 4.6e-05 |  | 4.96e-05 ± 1.7e-05 | 5.52e-05 ± 1.1e-05 | 0.000118 ± 1.6e-05 |  | 
32 | U31C G40U U47A | 0.000144 ± 4.5e-05 |  |  | 0.000154 ± 4.5e-05 | 0.000116 ± 2.2e-05 |  | 
